Measurements as given in the RNAGym collection of RNA variant scans (doi:10.1093/molbev/msab373).

B1: Azoarcus group I ribozyme (parent)
chain: GUGCCUUGCGCCGGGAAACCACGCAAGGGAUGGUGUCAAAUUCGGCGAAACCUAAGCGCCCGCCCGGGCGUAUGGCAACGCCGAGCCAAGCUUCGGCGCCUGCGCCGAUGAAGGUGUAGAGACUAGACGGCACCCACCUAAGGCAAACGCUAUGGUGAAGGCAUAGUCCAGGGAGUGGCGAAAGUCACACAAACCGG

Variants of: B1
Assay: reverse-splicing fitness (ratio to wild type); higher = more active; in vitro selection; Mg2+ level not given
Procedure, shortened: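 An in vitro group I ribozyme library with randomized positions was T7-transcribed and gel-purified. In triplicate, 10 pmol RNA in EPPS pH 7.5 was reacted with 50 pmoles of a 30-nt RNA substrate for 1 h at 37 °C across several added MgCl2 levels (1–48 mM), then stopped with EDTA. Products were reverse transcribed from a substrate-complementary primer, PCR-amplified and sequenced (HiSeq 4000). Fitness is a variant's read proportion after selection over that before, normalised to wild type.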
C82A A111C A120G A145G showed a reverse-splicing fitness of 0.0153. In the case of C82A A111C A120G A145C, the reverse-splicing fitness is reported as 0.0129. Variant C82A A111C A120C A145U C150A C169A has a reverse-splicing fitness of 0.00876. C82A A111C A120C A145U C150A C169U showed a reverse-splicing fitness of 0.0124. With C82A A111C A120C A145U C150A C169G the reverse-splicing fitness was 0.00824. Work on C82A A111C A120C C169U U176C yielded a reverse-splicing fitness of 0.0149. Variant C82A A111C A120C C169U U176A has a reverse-splicing fitness of 0.0152. C82A A111C A120C C169U U176G gave a reverse-splicing fitness of 0.00697. In the case of C82A A111C A120C C150U C169U U176C, the reverse-splicing fitness is reported as 0.0139. With C82A A111C A120C C150U C169U U176A the reverse-splicing fitness was 0.0177. For C82A A111C A120C C150U C169U U176G, the reverse-splicing fitness was 0.0075. With C82A A111C A120G A145C C150G C169U U176C the reverse-splicing fitness was 0.0101. Work on C82A A111C A120G A145C C150G C169U U176G yielded a reverse-splicing fitness of 0.00551. Work on C82A A111C A120G A145C C150G C169U U176A yielded a reverse-splicing fitness of 0.0089. Variant C82A A111C A120G A145C C150A C169G U176C has a reverse-splicing fitness of 0.0145. With C82A A111C A120G A145C C150A C169G U176A the reverse-splicing fitness was 0.0253. In the case of C82A A111C A120G A145C C150A C169G U176G, the reverse-splicing fitness is reported as 0.00557. For C82A A111C A120G A145C C150A C169G, the reverse-splicing fitness was 0.00754. Variant C82A A111C A120G A145C C150A C169A has a reverse-splicing fitness of 0.00794. Variant C82A A111C A120G A145C C150A C169U has a reverse-splicing fitness of 0.00671. For C82A A111C A120G A145C C150U C169A U176C, the reverse-splicing fitness was 0.00619. C82A A111C A120G A145C C150U C169A U176A showed a reverse-splicing fitness of 0.0112. In the case of C82A A111C A120G A145C C150U C169A U176G, the reverse-splicing fitness is reported as 0.00632. C82A A111C A120C A145G C169A U176C gave a reverse-splicing fitness of 0.0288. Work on C82A A111C A120C A145G C169A U176A yielded a reverse-splicing fitness of 0.0249. C82A A111C A120C A145G C169A U176G showed a reverse-splicing fitness of 0.00684. With C82A A111C A120G A145U C150A C169A the reverse-splicing fitness was 0.00893. For C82A A111C A120G A145U C150A C169U, the reverse-splicing fitness was 0.00736. Work on C82A A111C A120G A145U C150A C169G yielded a reverse-splicing fitness of 0.00777. Work on C82A A111C A120G A145U C150G C169G U176G yielded a reverse-splicing fitness of 0.00527. Work on C82A A111C A120G A145U C150G C169G U176A yielded a reverse-splicing fitness of 0.00626. For C82A A111C A120G A145U C150G C169G U176C, the reverse-splicing fitness was 0.00484. C82A A111C A120G A145G C150G C169A U176G gave a reverse-splicing fitness of 0.00771. For C82A A111C A120G A145G C150G C169A U176C, the reverse-splicing fitness was 0.0113. Variant C82A A111C A120G A145G C150G C169A U176A has a reverse-splicing fitness of 0.0133. For C82A A111C A120G A145G C150U C169A, the reverse-splicing fitness was 0.0111. Work on C82A A111C A120G A145G C150U C169G yielded a reverse-splicing fitness of 0.0106. With C82A A111C A120G A145G C150U C169U the reverse-splicing fitness was 0.00986. Work on C82A A111C A120C A145G C150G U176G yielded a reverse-splicing fitness of 0.00679. Work on C82A A111C A120C A145G C150G U176C yielded a reverse-splicing fitness of 0.0113. C82A A111C A120C A145G C150G U176A showed a reverse-splicing fitness of 0.00652. With C82A A111C A120C A145U C169U U176A the reverse-splicing fitness was 0.0155. For C82A A111C A120C A145U C169U U176C, the reverse-splicing fitness was 0.0141. Variant C82A A111C A120C A145U C169U U176G has a reverse-splicing fitness of 0.00589. C82A A111C A120G A145U C150G U176C gave a reverse-splicing fitness of 0.0147. Work on C82A A111C A120G A145U C150G U176A yielded a reverse-splicing fitness of 0.0064. C82A A111C A120G A145U C150G U176G showed a reverse-splicing fitness of 0.0034. Work on C82A A111C A120G A145U C150A C169G U176G yielded a reverse-splicing fitness of 0.00576. With C82A A111C A120G A145U C150A C169G U176C the reverse-splicing fitness was 0.0156. C82A A111C A120G A145U C150A C169G U176A gave a reverse-splicing fitness of 0.0138. Work on C82A A111C A120G A145C C150G C169G U176G yielded a reverse-splicing fitness of 0.00475. Variant C82A A111C A120G A145C C150G C169G U176C has a reverse-splicing fitness of 0.00766. C82A A111C A120G A145C C150G C169G U176A showed a reverse-splicing fitness of 0.00836. With C82A A111C A120G A145U C150G C169U U176G the reverse-splicing fitness was 0.00542. C82A A111C A120G A145U C150G C169U U176C gave a reverse-splicing fitness of 0.0111. C82A A111C A120G A145U C150G C169U U176A gave a reverse-splicing fitness of 0.00693. C82A A111C A120G A145U C150U C169A gave a reverse-splicing fitness of 0.00903. Work on C82A A111C A120C C169A U176G yielded a reverse-splicing fitness of 0.00712. C82A A111C A120C C169A U176A showed a reverse-splicing fitness of 0.0163. With C82A A111C A120C C169A U176C the reverse-splicing fitness was 0.0179. For C82A A111C A120C A145G C150U C169G U176C, the reverse-splicing fitness was 0.0166. Variant C82A A111C A120C A145G C150U C169G U176A has a reverse-splicing fitness of 0.0127. C82A A111C A120C A145G C150U C169G U176G gave a reverse-splicing fitness of 0.00711. For C82A A111C A120G A145U C150A C169A U176A, the reverse-splicing fitness was 0.0115. With C82A A111C A120G A145U C150A C169A U176C the reverse-splicing fitness was 0.0113. C82A A111C A120G A145U C150A C169A U176G showed a reverse-splicing fitness of 0.00621. For C82A A111C A120C A145U C150G C169G, the reverse-splicing fitness was 0.00675. C82A A111C A120C A145U C150G C169U showed a reverse-splicing fitness of 0.01. Work on C82A A111C A120C A145U C150G C169A yielded a reverse-splicing fitness of 0.00977. For C82A A111C A120G A145C C150U C169A, the reverse-splicing fitness was 0.00801. In the case of C82A A111C A120G A145C C150U C169G, the reverse-splicing fitness is reported as 0.00775. C82A A111C A120G A145C C150U C169U gave a reverse-splicing fitness of 0.00644. For C82A A111C A120G A145U C150U C169A U176C, the reverse-splicing fitness was 0.00986. Variant C82A A111C A120G A145U C150U C169A U176A has a reverse-splicing fitness of 0.0123. Variant C82A A111C A120G A145G C150A C169A U176A has a reverse-splicing fitness of 0.0181. For C82A A111C A120G A145G C150A C169A U176G, the reverse-splicing fitness was 0.00667. Work on C82A A111C A120G A145G C150A C169A U176C yielded a reverse-splicing fitness of 0.0231. For C82A A111C A120C A145G C150U U176C, the reverse-splicing fitness was 0.0208. Variant C82A A111C A120C A145G C150U U176A has a reverse-splicing fitness of 0.0119. C82A A111C A120C A145G C150U U176G showed a reverse-splicing fitness of 0.00852. In the case of C82A A111C A120G A145G C169U U176G, the reverse-splicing fitness is reported as 0.00473. With C82A A111C A120G A145G C169U U176A the reverse-splicing fitness was 0.0159. In the case of C82A A111C A120G A145G C169U U176C, the reverse-splicing fitness is reported as 0.0157. Variant C82A A111C A120G A145C C169U U176C has a reverse-splicing fitness of 0.00921.
